Legend:
293T (CD45-) = experiment: Cell viability assay 72 h (PrestoBlue), 293T; format: cell-based, human; settings: drug-linker B1
Experimental: OCIM1, Jurkat and Nalm6 cells were seeded at 0.5×10^5/mL were cultured for 72 hours in presence of Mab or ADC or medium (in triplicate wells) in wells of flat bottom 96-well plates. 293T cells were seeded at 9.3×10^3 cells per well in flat bottom 96-well plates and allowed to adhere the plate for up to 24 hours. 293T cells were subsequently cultured with Mab or ADC or medium (in triplicate wells) for 72 hours. PrestoBlue® Cell viability Reagent (Thermo Fisher Scientific) was added to each and incubated for up to 1.5 hours. Fluorescence intensity from each well was detected using a FLUOstar OPTIMA microplate reader (BMG Labtech). Data points are mean±s.d. for representative experiments.

[1] = Dosimetry in humanised NSG mice; format: in vivo; settings: 3 mg/kg, culled for weight loss >15%
Experimental: For dosimetry in humanised NSG mice, adult female NSG mice were sublethally irradiated with 2.5 Gy on the day before transplantation. Cryopreserved purified CD34+ cells from mobilized peripheral blood from a normal donor were thawed and 0.5×10^6 cells in PBS were injected intravenously into the tail vein. Human engraftment (human CD45+ cells) in the blood of all mice was determined by flow cytometry at 12 weeks post-transplant. Mice were assigned to treatment cohorts so that the median human engraftment in the blood for between cohorts was as similar as possible. Mice were treated with 0.3 mg/kg or 3 mg/kg Mab or ADC. Blood samples were taken after 7 days and analysed by flow cytometry. The bone marrow, blood and spleen of mice were analysed at 14 days post-treatment.

[2] = Dosimetry in non-humanised NSG mice; format: in vivo; settings: for Comment (survival / culling): non-humanised NSG mice, monitored 2 weeks; for mice culled due to weight loss: human (hIgG1-AAA) format, ≥3 mg/kg, humanised and non-humanised mice
Experimental: For dosimetry in non-humanised NSG mice, adult NSG mice were injected intravenously via the tail vein with unconjugated Mab or ADC up to 5 mg/kg. Mice regularly monitored over a period of 2 weeks for any signs of morbidity. Mice were culled if rapid weight loss (>15%) occurred over a period of 2 days.

CD34+ PBSC (CD45+) = experiment: Clonogenic assay, CD34+ PBSC treated 2 h with Mab or ADC; format: cell-based, human; settings: PBD ADCs in human IgG1-AAA format
Experimental: Cryopreserved purified CD34+ cells from mobilized peripheral blood from three normal donors were thawed and cultured at […] complete medium (RPMI 1640 plus 10% fetal calf serum) in presence of Mab, ADC or medium alone for 2 hours in 96-well U-bottom plates. Cells were mixed and 40 uL was transferred to 2 ml of StemMACS HSC-CFU complete with Epo (Miltenyi Biotech) and mixed well. 0.5 ml (250 cells) was plated into triplicate into wells of a 24-well plate. Colonies were enumerated between 10-14 days. Data is mean of three donors±s.d.

Molecule | EC50 (293T (CD45-)) | Comment (survival / culling) [1] | Comment (survival / culling) ([2]; 0.5 mg/kg i.v.) | Comment (survival / culling) ([2]; 5 mg/kg i.v.) | mice culled due to weight loss [2] | inhibition of colony formation (CD34+ PBSC (CD45+))
YTH54.12-hIgG1-AAA-PBD: YTH54.12 in human IgG1-AAA format conjugated to PBD drug-linker B1 (conjugate) VH: EVQLVESGGGLVQPGGSMKLSCAASGFTFSDYYMAWVRQAPKKGLEWVASMSFAGSSTYYGDSVKGRFTISRDNAKTTLYLQMNSLRSEDTATYYCARMYTTDYYLYWYFDFWGPGTMVTVSS VL: DVQMTQSPSYLAASPGESVSISCKASKSISNYLAWYQQKPGEANKILIYSGSTLQSGTPSRFSGSGSGTDFSLTIRNLEPEDFAVYYCQQYDEKPLTFGSGTKLEIK | 16.5 nM | 1 culled on day 9 | All alive at day 14 | All alive at day 14 | 1 of the 6 | dose-dependent inhibition of colony formation
YTH24.5-hIgG1-AAA-PBD: YTH24.5 in human IgG1-AAA format conjugated to PBD drug-linker B1 (conjugate) VH: QVNLLQSGAALVKPGASVKLSCKASSYTFTDYYIHWVKQSHGKTLEWIGYINPKSGFTNYNEKFRRKATLTVDKSTNTAYMDISRLTSEDSATYYCTRRTGVIPMDAWGQGASVTVSS VL: DVVMTQTPVSLSVSLGGQVSISCRSSQSFVSSDGNTYLNWYLQKPGQSPQLLIYKVSNRLSGVPDRFSGSGSGTDFTLKISRVEHDDLGVYYCGQASKIPLTFGSGTKLEIK | 134 nM | 1 culled day 6, 1 | All alive at day 14 | 2 culled at day 6 - | 4 of the 6 | dose-dependent inhibition of colony formation

From patent US20220096654A1, “PYRROLOBENZODIAZEPINE-ANTIBODY CONJUGATES AND USES THEREOF” (ADC THERAPEUTICS SA, priority 2020, published 2022)
